Data as given in patent US20220002732A1, “INHIBIN AS TARGETABLE REGULATORS OF ANGIOGENESIS” (UNIVERSITY OF SOUTH CAROLINA, priority 2016, published 2022).

Assays:
[1] = tested on: TGF-β receptor serine threonine kinases (ALK1-7); assay: Panel of small molecule ALK inhibitors: inhibin-induced signaling and angiogenesis; format: cell-based; details: preliminary screen of ALK inhibitors
From the text: The inhibin-α activation of the SMAD1/5 pathway was also examined to determine which receptor type is required. TGF-β receptor serine threonine kinases (ALK1-7) are used by other TGF-β ligands. Testing was done to determine which Type I receptor is utilized by inhibin by using a panel of small molecule inhibitors as a preliminary screen for different ALKs. […] Similarly, three type II receptors are expressed in cells: TBRII, ACTRII and BMPRII.

HMvEC-1 cells = assay: Three-dimensional capillary sprouting and tube formation (number of meshes); format: cell-based, human
Method: FIG. 25 illustrates three-dimensional capillary sprouting and tube formation of HMvEC-1 cells in the presence of conditioned media (CM) from shControl SKOV3 cancer cells or CM from shINHA SKOV3 cancer cells (top), in the presence of CM from shControl SKOV3 cells in the presence of 10 μg/ml IgG or anti-inhibin-α (middle), and in the presence of CM from shControl treated with (+) or without (−) 300 pM recombinant Inhibin A alone and anti-inhibin-α antibody (10 μg/ml) (bottom). The bar graphs represent the average number of meshes quantified and represent duplicate trials. […] (Bar graphs show mean±SEM, ***P<0.001 and **P<0.01 (n=3), Student's t-test. Scale Bar=500 μm.)
Other TGF-β members have been reported to have effects on angiogenesis. FIG. 26 illustrates side-by-side comparison of angiogenesis results for HMvEC-1 cells treated as indicated with other TGF-β members (activin A, BMP9, TGFβ1) either alone or in the presence of inhibin-α. The robust effect of inhibin on angiogenesis can be seen. The bar graph represents quantitation of number of meshes.
FIG. 27 illustrates the capillary sprouting and tube formation of multiple endothelial cell types (HUVEC, HMvEC, MEEC) upon treatment with 300 pM inhibin-α for 16 hours and the broad effect of inhibin on angiogenesis in different cell types. The graphs represent the number of meshes, branches, and nodes quantified. (Bar graphs show mean±SEM, ***P<0.001 and **P<0.01 (n=3), Student's t-test. Scale Bar=500 μm.)
FIG. 32 illustrates three-dimensional capillary sprouting and tube formation of HMvEC-1 cells in the presence or absence of recombinant inhibin-α (300 pM) either untreated or pretreated with 100 μg/ml TRC105 for 30 minutes prior to inhibin-α treatment (left, scale bar=500 μm). Average number meshes/field was quantified 16 h after treatment and presented in the bar graph (middle). Minimum of 3 fields were counted and data represent duplicate trials. Western blotting for SMAD1/5 phosphorylation is shown (right) in response to 20 pM inhibin-α for up to 60 minutes.
FIG. 34 illustrates capillary sprouting and tube formation (left) in HMvEC-1 cells in response to inhibin-α in the absence and presence of 5 μM of TRC105 added 30 minutes prior to treatment with inhibin-α. The bar graph on the right represents the number of meshes quantified.

SMAD1/5 = assay: Western blot and staining for SMAD1/5 activation in endothelial cells (HMvEC-1, MEEC); format: cell-based, human, mouse
Method: (§1) Mouse Embryonic Endothelial Cells (MEEC) and Human Microvascular Endothelial Cells (HMvEC-1) were examined to determine the effect of inhibin-α on SMAD1/5 activation and on MAPK pathway activation, and specifically, on ERK1/2 activation. GAPDH or B-actin was used as control. Cells were incubated with 20 pM inhibin-α and examined over a time course of 60 minutes and also examined following 30-minute incubation over a dose course from 0 to 100 pM inhibin-α. Western blot results are shown of the HMvEC-1 (FIG. 17) and MEEC (FIG. 18). FIG. 19 presents the Western blot time course results following incubation of MEEC with inhibin-α for ERK1/2 activation. FIG. 20 presents image results from staining (Psmad1/5, DAP, and merged images) for HMvEC-1 cells (left) and MEEC cells (right) following incubation in inhibin-α or untreated (UT).
To determine if inhibin secreted by ovarian cancer cells activates the SMAD1/5 pathway in endothelial cells, conditioned media were obtained from stable cell lines that were generated from SKOV3 cells and OVCA420 cells with short hairpin RNA either as a control (with no effective sequence) (shControl), or directed at inhibin-α (shINHA), or stable unmodified SKOV3 cells. HMvEC-1 cells were then incubated in one of the conditioned media, as schematically illustrated in FIG. 22.

ERK1/2 = assay: Western blot for MAPK pathway ERK1/2 activation in endothelial cells (MEEC); format: cell-based, mouse; details: time course
Method: as §1

SMAD2/3 = assay: Western blot for SMAD2/3 activation in endothelial cells (HMvEC-1, MEEC); format: cell-based, human, mouse

Molecule: NC(=O)c1ccc(-c2nc(-c3ccc4c(c3)OCO4)c(-c3ccccn3)[nH]2)cc1 [SB431542]
- suppression of inhibin-induced signaling and angiogenesis [1]: not ALK3/6 or ALK5/4/7 (SB431542), suppressed

B1: TRCN105: humanized antibody to endoglin in clinical trials (antibody, chains of the INN, looked up, V domains shown)
VH: EVKLEESGGGLVQPGGSMKLSCAASGFTFSDAWMDWVRQSPEKGLEWVAEIRSKASNHATYYAESVKGRFTISRDDSKSSVYLQMNSLRAEDTGIYYCTRWRRFFDSWGQGTTLTVSS
VL: QIVLSQSPAILSASPGEKVTMTCRASSSVSYMHWYQQKPGSSPKPWIYATSNLASGVPVRFSGSGSGTSYSLTISRVEAEDAATYYCQQWSSNPLTFGAGTKLELK
- inhibin-α-induced angiogenesis on loss or block of endoglin or ALK1 (HMvEC-1 cells; endothelial cells with or without recombinant inhibin-α): inhibin does not induce angiogenesis

B2: recombinant Inhibin: recombinant Inhibin A, αβA heterodimer, used at 300 pM (protein, UniProt P05111 233-366; P08476 311-426, looked up)
Inhibin alpha chain: STPLMSWPWSPSALRLLQRPPEEPAAHANCHRVALNISFQELGWERWIVYPPSFIFHYCHGGCGLHIPPNLSLPVPGAPPTPAQPYSLLPGAQPCCAALPGTMRPLHVRTTSDGGYSFKYETVPNLLTQHCACI
Inhibin beta A chain: GLECDGKVNICCKKQFFVSFKDIGWNDWIIAPSGYHANYCEGECPSHIAGTSGSSLSFHSTVINHYRMRGHSPFANLKSCCVPTKLRPMSMLYYDDGQNIIKKDIQNMIVEECGCS
- endothelial cell angiogenesis induced by tumor cell-produced inhibin (number of meshes) (HMvEC-1 cells; HMvEC-1, CM from shControl SKOV3, antibody 10 μg/ml, recombinant Inhibin A 300 pM): can be recapitulated

B3: inhibin-α: α-subunit of inhibin, critical for the functionality of dimeric inhibin (both A and B) (protein, UniProt P05111 233-366, looked up)
Inhibin alpha chain: B2 Inhibin alpha chain
- SMAD1/5 pathway activation by cancer cell conditioned media (SMAD1/5; HMvEC-1 cells in conditioned media of shControl or shINHA SKOV3/OVCA420 cells): activates the SMAD1/5 pathway in endothelial cells in a paracrine manner
- SMAD1/5 activation (SMAD1/5; endothelial cells, 20 pM over 60 minutes, 0 to 100 pM for 30 minutes): robust activator
- angiogenesis (number of meshes), side-by-side with other TGF-β members (HMvEC-1 cells; HMvEC-1, compared with activin A, BMP9, TGFβ1): robust effect
- capillary sprouting and tube formation in multiple endothelial cell types (HMvEC-1 cells; HUVEC, HMvEC, MEEC, 300 pM, 16 hours): broad effect
- ERK1/2 activation (ERK1/2): robust activator
- SMAD2/3 activation (SMAD2/3): not equally an activator
